# Target: mLRP/LRPTmMegT mini-receptor (fourth ligand binding and transmembrane domains of LRP1 with the C-terminal … (UniProt Q07954 3293-4444))
# Assay: cell-based or functional assay
# Sequence of mLRP/LRPTmMegT mini-receptor (fourth ligand binding and transmembrane domains of LRP1 with the C-terminal … (Q07954 3293-4444): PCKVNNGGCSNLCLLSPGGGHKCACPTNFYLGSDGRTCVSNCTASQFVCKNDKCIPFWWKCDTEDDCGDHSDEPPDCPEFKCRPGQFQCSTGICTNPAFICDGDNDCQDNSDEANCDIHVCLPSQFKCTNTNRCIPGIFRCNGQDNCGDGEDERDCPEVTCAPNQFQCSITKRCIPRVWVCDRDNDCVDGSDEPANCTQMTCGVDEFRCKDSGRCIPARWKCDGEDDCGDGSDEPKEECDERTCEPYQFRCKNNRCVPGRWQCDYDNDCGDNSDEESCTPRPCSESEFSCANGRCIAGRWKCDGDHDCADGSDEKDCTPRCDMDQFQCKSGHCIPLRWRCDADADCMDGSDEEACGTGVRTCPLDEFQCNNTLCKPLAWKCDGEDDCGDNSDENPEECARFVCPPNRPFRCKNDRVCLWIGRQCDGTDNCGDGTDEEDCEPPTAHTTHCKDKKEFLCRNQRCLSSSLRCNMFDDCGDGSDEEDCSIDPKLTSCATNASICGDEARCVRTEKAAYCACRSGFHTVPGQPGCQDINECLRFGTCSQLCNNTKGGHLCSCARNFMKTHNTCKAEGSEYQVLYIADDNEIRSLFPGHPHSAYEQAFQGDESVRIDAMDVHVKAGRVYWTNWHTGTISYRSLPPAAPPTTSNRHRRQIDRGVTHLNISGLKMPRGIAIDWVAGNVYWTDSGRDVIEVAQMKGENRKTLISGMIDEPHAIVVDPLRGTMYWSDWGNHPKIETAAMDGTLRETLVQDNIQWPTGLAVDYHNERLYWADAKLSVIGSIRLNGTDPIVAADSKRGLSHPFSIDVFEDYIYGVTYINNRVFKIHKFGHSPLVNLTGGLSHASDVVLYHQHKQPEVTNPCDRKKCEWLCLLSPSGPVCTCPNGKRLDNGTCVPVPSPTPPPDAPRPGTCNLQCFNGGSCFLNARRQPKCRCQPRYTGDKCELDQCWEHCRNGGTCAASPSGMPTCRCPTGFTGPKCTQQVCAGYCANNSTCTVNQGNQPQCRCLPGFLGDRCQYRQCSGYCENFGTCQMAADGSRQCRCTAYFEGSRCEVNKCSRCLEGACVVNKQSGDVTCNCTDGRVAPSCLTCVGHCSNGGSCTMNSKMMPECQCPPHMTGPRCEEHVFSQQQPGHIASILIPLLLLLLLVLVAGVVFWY
binder,measurement,value
receptor-associated protein (RAP) (ligand) YSREKNQPKPSPKRESGEEFRMEKLNQLWEKAQRLHLPPVRLAELHADLKIQERDELAWKKLKLDGLDEDGEKEARLIRNLNVILAKYGLDGKKDARQVTSNSLSGTQEDGLDDPRLEKLWHKAKTSGKFSGEELDKLWREFLHHKEKVHEYNVLLETLSRTEEIHENVISPSDLSDIKGSVLHSRHTELKEKLRSINQGLDRLRRVSHQGYSTEAEFEEPRVIDLWDLAQSANLTDKELEAFREELKHFEAKIEKHNHYQKQLEIAHEKLRHAESVGDGERVSRSREKHALLEGRTKELGYTVKKHLQDLSGRISRARHNEL,ratio of the apical-to-basolateral to the basolateral-to-apical permeability coefficient of 125I-RAP in MEGt-transfected MDCK cells,460 fold

# — patent publication US20100028370A1 (RAPTOR PHARMACEUTICAL, published 2010)
